Assays:
[1] = biological target: T1, Isopeptide(3)_Isopeptide(1)_Isopeptide(2) domains-IGSF8 VLM fusion protein (Homo sapiens (IGSF8 portion)); assay: Capillary electrophoresis-Western blot, anti-V5, peptide incubated 3 h at RT with modified EVs (FIG. 13)
T1 construct: Flag-tagged fusion of three isopeptide domains and IGSF8; also called Tricatcher-1-IGSF8; Tricatcher-1-IGSF8 fusion protein
Protocol: (§1) EVs were harvested and purified from producer cells transfected with each of the indicated recombinant isopeptide domain-containing proteins as described above in Example 11. EVs denoted as “Un” were harvested and purified in parallel from untransfected cells. Two additional GPC3 affinity peptide-Isopeptide Tag fusion peptides, namely to either Isopeptide-1 tag or Isopeptide-3 tag, are tested for the ability form a covalent bond (i.e., isopeptide bond) with the IGSF8 fusion proteins comprising IGSF8 as a VLM and an Isopeptide-2 domain (SEQ ID NO: 200 from expression vector in FIG. 2), Isopeptide-1 and Isopeptide-2 domains (SEQ ID NO: 202 from expression vector in FIG. 3) or Isopeptide-1, Isopeptide-2 and Isopeptide-3 domains (SEQ ID NO: 204 from expression vector in FIG. 4; also called Tricatcher-1-IGSF8 fusion protein), indicated as “Iso-2,” “Di” and “Tri,” respectively, for the Isopeptide domain-VLM status (see FIG. 13). GPC3 affinity peptide (PEPN)-Isopeptide-1 Tag fusion peptide and GPC3 affinity peptide-Isopeptide-3 Tag fusion peptide additionally have an S-peptide epitope tag (S-tag) and V5 epitope tag, respectively; while the IGSF fusion proteins all have a Flag epitope tag. […]

[2] = biological target: T2, Isopeptide(1)_Isopeptide(2) domains-IGSF VLM fusion protein (Homo sapiens (IGSF8 portion)); assay: Capillary electrophoresis-Western blot (Jess), anti-myc, peptide incubated with modified EVs
T2 construct: also called Di; DiCatcher-IGSF8
Protocol: (§2) for a total volume of 50 μL. […] Samples are mixed by repeated pipetting. The microtiter plate is covered, spun at 50×g for 1 min and incubated at RT with shaking on an orbital shaker for 3 hrs. Reaction is terminated by adding 12.5 μL of 5× termination buffer (5% SDS, 300 mM Tris-HCl (pH 6.8)), mixing and transferring to 1.5-mL microfuge tube, and heating the tube to 95° C., 5 min. Samples are analyzed on a combined automated capillary electrophoresis and Western blot system (Jess™ Simple Western system) according to the manufacturer ProteinSimple® (San Jose, CA), using anti-myc or anti-FLAG antibody as a primary antibody followed by a goat anti-mouse secondary antibody-conjugated to horseradish peroxidase for chemiluminescent detection.

[3] = biological target: T3, Isopeptide(2) domain-IGSF8 VLM fusion protein (Homo sapiens (IGSF8 portion)); assay: as above
T3 construct: also called Iso-2; isopeptide(2)-IGSF8
T3 chain: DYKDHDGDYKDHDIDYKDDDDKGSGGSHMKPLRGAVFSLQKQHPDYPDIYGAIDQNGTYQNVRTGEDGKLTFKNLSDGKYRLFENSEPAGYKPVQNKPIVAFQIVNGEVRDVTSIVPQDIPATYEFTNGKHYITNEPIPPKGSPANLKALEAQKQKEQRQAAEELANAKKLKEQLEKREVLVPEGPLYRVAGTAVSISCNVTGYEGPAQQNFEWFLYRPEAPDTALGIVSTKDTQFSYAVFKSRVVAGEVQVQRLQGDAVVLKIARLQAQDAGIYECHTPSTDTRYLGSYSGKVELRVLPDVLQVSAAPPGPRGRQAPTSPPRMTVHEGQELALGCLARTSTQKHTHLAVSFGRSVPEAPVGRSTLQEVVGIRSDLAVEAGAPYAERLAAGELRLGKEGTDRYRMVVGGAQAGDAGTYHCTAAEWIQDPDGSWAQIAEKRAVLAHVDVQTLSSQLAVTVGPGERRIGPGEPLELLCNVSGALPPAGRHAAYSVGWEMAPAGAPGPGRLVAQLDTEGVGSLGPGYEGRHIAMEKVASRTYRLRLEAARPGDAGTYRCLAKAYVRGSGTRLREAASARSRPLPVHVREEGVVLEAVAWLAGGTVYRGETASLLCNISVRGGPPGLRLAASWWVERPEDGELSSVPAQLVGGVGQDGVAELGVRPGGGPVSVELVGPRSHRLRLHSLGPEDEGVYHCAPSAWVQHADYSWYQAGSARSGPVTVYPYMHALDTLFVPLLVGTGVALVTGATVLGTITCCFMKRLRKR
Protocol: as §2

[4] = biological target: T1, Isopeptide(3)_Isopeptide(1)_Isopeptide(2 …); assay: as above
Protocol: as §2

[5] = biological target: T3, Isopeptide(2) domain-IGSF8 VLM fusion …; assay: Capillary electrophoresis-Western blot (Jess), anti-myc, 50 µM peptide, 3 h at RT with modified EVs
Protocol: as §2

[6] = biological target: T1, Isopeptide(3)_Isopeptide(1)_Isopeptide(2 …); assay: Cy3 fluorescence on SDS-PAGE, conjugate incubated with modified EVs
Protocol: 3 μL 500 mM DTT. Samples are mixed, vortexed briefly, spun and heated to 95° C. for 5 min before loading 15 μL per well of NuPAGE® Bis-Tris precast gel. Gel is run at 125V for 1 hr using 1×2-(N-morpholino)ethanesulfonic acid (MES) buffer, following gel manufacturer recommendation, with the loading dye front permitted to run off the gel in order to better separate high molecular weight bands. Seeblue Plus 2 Pre-stained Standard is used as molecular weight standard to follow the course of the electrophoresis and well as a reference for the determining the apparent molecular weight of the targeting moiety-VLM conjugate, in particular, the 5′-IsoPepTag1-ASO-Tricatcher-1-IGSF8 and 3′-IsoPepTag1-ASO-Tricatcher-1-IGSF8 conjugates.

[7] = biological target: T2, Isopeptide(1)_Isopeptide(2) …; assay: Capillary electrophoresis-Western blot, anti-S-tag, peptide incubated 3 h at RT with modified EVs (FIG. 13)
Protocol: as §1

[8] = biological target: T1, Isopeptide(3)_Isopeptide(1)_Isopeptide(2 …); assay: as above
Protocol: as §1

B1: V5-epitope tagged Isopeptide(3) tag fusion peptide, SEQ ID NO: 244 (peptide)
peptide: THVSPNQGGLPSSGGGGSGGGGGKPIPNPLLGLDSTDPIVMIDNDKPIT
notes: also called N-terminal PEPN + Isopeptide(3) tag
binding result [1]: binds

B2: C-IsoPep2Tag-PEPN (peptide)
peptide: THVSPNQGGLPSSGGGGSGGGGEQKLISEEDLKLGDIEFIKVNK
notes: also called Isopeptide-2 tag-PEPN fusion peptide (tag at C-terminus); N-terminal PEPN + Isopeptide(2) tag
binding result [2]: binds | binding result [3]: binds | binding result [4]: binds

B3: V5-epitope tagged Isopeptide(3) tag fusion peptide, SEQ ID NO: 246 (peptide)
peptide: DPIVMIDNDKPITSGGGGSGGGGGKPIPNPLLGLDSTTHVSPNQGGLPS
notes: also called C-terminal PEPN + Isopeptide(3) tag
binding result [1]: binds

B4: N-IsoPep2Tag-PEPN (peptide)
peptide: KLGDIEFIKVNKSGGGGSGGGGEQKLISEEDLTHVSPNQGGLPS
notes: also called Isopeptide-2 tag-PEPN fusion peptide (tag at N-terminus); C-terminal PEPN + Isopeptide(2) tag
binding result [5]: binds | binding result [2]: binds | binding result [4]: binds

B5: 5′-IsoPepTag1-ASO (peptide)
peptide: AHIVMVDAYKPTKC
modifications: C-terminal Cys joined by click chemistry to the 5′ end of the antisense oligonucleotide TGC GCT CCT GGA CGT AGC C, which carries Cy3 at its 3′ end
notes: Peptide-oligonucleotide conjugate; also called 5′-IsoPep1Tag-ASO; Cy3-labeled IsoPep1Tag-ASO conjugate
binding result [6]: binds

B6: S-tag labeled Isopeptide(1) tag fusion peptide, SEQ ID NO: 238 (peptide)
peptide: AHIVMVDAYKPTKSGGGGSGGGGKETAAAKFERQHMDSTHVSPNQGGLPS
notes: Order is isopeptide-1 tag, linker, S-tag, PEPN; also called C-terminal PEPN + Isopeptide(1) tag
binding result [7]: binds | binding result [8]: binds

B7: 3′-IsoPepTag1-ASO (peptide)
peptide: CAHIVMVDAYKPTK
modifications: N-terminal Cys joined by click chemistry to the 3′ end of the antisense oligonucleotide TGC GCT CCT GGA CGT AGC C, which carries Cy3 at its 5′ end
notes: Peptide-oligonucleotide conjugate; also called 3′-IsoPep1Tag-ASO; C-IsoPep1Tag-ASO
binding result [6]: binds
